Experimental data as given in US20120177664A1 (IMMUNAS PHARMA, published 2012).

Target: T1, A beta oligomer (synthetic A beta1-40, HCl form, 0.1 mg/ml in PBS, incubated at 37 degrees C for one hour) (UniProt P05067 672-711)
T1 construct: domain: A beta1-40; non-fibrous multimer of the peptide; also called A beta 1-40 oligomer
Experiment: SPR (Biacore 3000)
Description: The analysis was carried out by Surface Plasmon Resonance (SPR) using Biacore 3000 (GE Healthcare Sciences).

Kd [nM]	koff [s⁻¹]	kon [M⁻¹ s⁻¹]	Binder
22.1	0.00517	234000	IR-132 antibody (antibody, mouse IgG2b, V domains shown, mouse IgG2b) VH: DVQLVESGGGLVQPGGSRKLSCAASGFTFSSFGMHWVRQAPEKGLEWVAYISSGSSTIYYADTVKGRFTISRDNPKNTLFLQMTSLRSEDTAMYYCARDGNYVGWFAYWGQGTLVTVSA VL: DVVMTQTPLSLPVSLGDQASISCRSSQSLVHSNGNTYLHWYLQKPGQSPKLLIYKVSNRFSGVPDRFSGSGSGTDFTLKISRVEAEDLGVYFCSQSTHVPLTFGAGTKLELK
1050	0.41	389000	IR-154 antibody (antibody, V domains shown, mouse IgG2a) VH: DVQLVESGGGLVQPGGSRKLSCAASGFSFSSFGMHWVRQAPEKGLEWVAYISSGRSTIYYADTVKGRFTISRDNPKNTLFLQMTSLRSEDTAMYYCARLRGNLDYAMDYWGQGTSVTVSS VL: DVVMTQTPLSLPVSLGDQASISCRSSQSLVHSNGNTYLHWYLQKPGQSPKLLIYKVSNRFSGVPDRFSGSGSGTDFTLKISRVEAEDLGVYFCSQSTHVPFTFGSGTKLEIK
1050	0.37	351000	IR-155 antibody (antibody, V domains shown, mouse IgG2a) VH: DVQLVESGGGLVQPGGSRKLSCAASGFTFSSFGMHWVRQAPEKGLEWVAYISSGSSTIYYADTVKGRFTISRDNPKNTLFLQMTSLRSEDTAMYYCARLDGYRGDYWGQGTTLTVSS VL: DVVMTQTPLSLPVSLGDQASISCRSSQSLVHSNGNTYLHWYLQKPGQSPKLLIYKVSNRFSGVPDRFSGSGSGTDFTLKISRVEAEDLGVYFCSQSTHVPLTFGSGTKLEIK
1290	0.116	89900	IR-135 antibody (antibody, V domains shown, mouse IgG2a) VH: QVQLQQSGAELAKPGASVKMSCKASGYTFTSYWMHWVKQRPGQGLEWIGYINPSTGYTEYNQKFKDKATLTADKSSSTAYMQLSSLTSEDSAVYYCDYYGSSYGYFDVWGAGTTVTVSS VL: DVVMTQTPLSLPVSLGDQASISCRSSQSLVHSNGNTYLHWYLQKPGQSPKLLIYKVSNRFSGVPDRFSGSGSGTDFTLKISRVEAEDLGVFFCSQSTHVPLTFGAGTKLELK
50.6	0.00165	32600	IR-139 antibody (antibody, mouse IgG2b, V domains shown, mouse IgG2b) VH: DVQLVESGGGLVQPGGSRKLSCAASGFTFSSFGMHWVRQAPEKGLEWVAYISSGSSTIYYADTVKGRFTISRDNPKNTLFLQMTSLRSEDTAMYYCARDEGYFDYWGQGTTLTVSS VL: DVVMTQTPLSLPVSLGDQASISCRSSQSLVHSNGNTYLHWYLQKPGQSPKLLIYKVSNRFSGVPDRFSGSGSGTDFTLKISRVEAEDLGVYFCSQSTHVPLTFGAGTKLELK
517	0.124	240000	IR-150 antibody (antibody, mouse IgG2b, V domains shown, mouse IgG2b) VH: not shown VL: DVVMTQTPLSLPVSLGDQASISCRSSQSLVHSNGNTYLHWYLQKPGQSPKLLIYKVSNRFSGVPDRFSGSGSGTDFTLKISRVEAEDLGVYFCSQSTHVPLTFGAGTKLELK
